Data set [1] concerns the molecule itself. Description: negative-stain EM; purified Flag-PrpF39; reference-free 2D class averages and preliminary 3D model compared with the Prp42/Prp39 heterodimer.
Another data set concerns the target T1, yeast Prp40 (S. cerevisiae, UniProt P33203 1-583).
T1 construct: Prp40 of S. cerevisiae U1 snRNP; not modelled in the structure; source: endogenous, S. cerevisiae; co-purified in U1 snRNP through the TAP tag on U1A
T1 sequence (looked up): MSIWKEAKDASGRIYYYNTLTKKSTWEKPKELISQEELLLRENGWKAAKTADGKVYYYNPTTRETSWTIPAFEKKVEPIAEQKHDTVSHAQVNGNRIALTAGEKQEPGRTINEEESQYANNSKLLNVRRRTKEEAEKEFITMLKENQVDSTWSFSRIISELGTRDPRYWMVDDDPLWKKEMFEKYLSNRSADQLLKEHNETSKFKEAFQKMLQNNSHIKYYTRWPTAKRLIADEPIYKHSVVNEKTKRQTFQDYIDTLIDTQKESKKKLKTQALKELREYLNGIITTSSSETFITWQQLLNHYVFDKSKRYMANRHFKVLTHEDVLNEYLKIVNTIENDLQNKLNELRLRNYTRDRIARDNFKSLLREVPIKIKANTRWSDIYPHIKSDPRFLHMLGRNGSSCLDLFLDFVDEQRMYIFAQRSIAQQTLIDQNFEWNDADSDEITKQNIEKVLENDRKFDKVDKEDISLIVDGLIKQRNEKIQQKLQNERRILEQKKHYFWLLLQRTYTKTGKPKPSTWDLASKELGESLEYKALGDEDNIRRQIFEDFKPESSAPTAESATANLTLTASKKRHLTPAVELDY
As to the kind of experiment: cross-linking; purified yeast U1 snRNP cross-linked with 100 uM BS3, 30 min, room temperature; trypsin digest, mass spectrometry. The note with it: both partners purified.

The target in the next data set is T2, yeast Snu56 (S. cerevisiae, UniProt Q03782 1-492).
T2 construct: Snu56 of S. cerevisiae, 492 residues; N-terminal domain 47-254 and long helix 255-303 modelled; source: endogenous, S. cerevisiae; co-purified in U1 snRNP through the TAP tag on U1A
T2 sequence (looked up): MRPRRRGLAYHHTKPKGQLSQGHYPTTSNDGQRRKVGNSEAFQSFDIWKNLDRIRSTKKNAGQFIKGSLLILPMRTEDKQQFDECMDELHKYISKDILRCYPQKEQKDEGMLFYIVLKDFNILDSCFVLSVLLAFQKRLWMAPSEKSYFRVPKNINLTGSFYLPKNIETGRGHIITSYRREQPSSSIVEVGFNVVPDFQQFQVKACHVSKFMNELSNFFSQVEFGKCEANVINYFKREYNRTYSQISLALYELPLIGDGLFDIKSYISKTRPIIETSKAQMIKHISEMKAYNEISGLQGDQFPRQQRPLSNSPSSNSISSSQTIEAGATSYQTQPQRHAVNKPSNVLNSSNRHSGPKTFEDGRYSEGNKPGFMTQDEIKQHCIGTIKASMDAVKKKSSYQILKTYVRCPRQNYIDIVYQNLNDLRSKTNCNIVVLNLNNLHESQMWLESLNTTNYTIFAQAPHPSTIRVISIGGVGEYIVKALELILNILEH
Description: cryo-EM structure; natively purified yeast U1 snRNP, 3.6 Å overall resolution. The note with it: both partners purified.

In the next data set the target is T3, yeast Prp42 (S. cerevisiae, UniProt Q03776 1-544).
T3 construct: Prp42 of S. cerevisiae, 544 residues; residues 2-540 modelled; source: endogenous, S. cerevisiae; co-purified in U1 snRNP through the TAP tag on U1A
T3 sequence (looked up): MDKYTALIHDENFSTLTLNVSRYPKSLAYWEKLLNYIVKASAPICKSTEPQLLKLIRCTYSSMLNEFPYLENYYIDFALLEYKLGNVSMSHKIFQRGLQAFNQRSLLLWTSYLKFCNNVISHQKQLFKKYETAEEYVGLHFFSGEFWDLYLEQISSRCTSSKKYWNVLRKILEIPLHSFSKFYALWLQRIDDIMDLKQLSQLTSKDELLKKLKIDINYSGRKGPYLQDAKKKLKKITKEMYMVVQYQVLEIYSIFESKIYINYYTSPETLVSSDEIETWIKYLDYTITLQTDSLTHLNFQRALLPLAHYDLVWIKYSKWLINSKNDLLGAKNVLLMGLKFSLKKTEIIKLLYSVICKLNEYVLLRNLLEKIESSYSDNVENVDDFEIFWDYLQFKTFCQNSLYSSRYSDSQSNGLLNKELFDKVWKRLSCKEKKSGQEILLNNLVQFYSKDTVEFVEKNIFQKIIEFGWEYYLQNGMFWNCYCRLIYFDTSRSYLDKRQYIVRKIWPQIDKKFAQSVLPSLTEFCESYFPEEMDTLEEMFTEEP
Described as above. The note with it: both partners purified.

For a further data set, the target named is T4, yeast U1C (S. cerevisiae, UniProt Q05900 1-231).
T4 construct: U1C of S. cerevisiae U1 snRNP, 231 residues; NTD residues 1-48; residues 3-47 and 48-195 modelled; also called Yhc1; source: endogenous, S. cerevisiae; co-purified in U1 snRNP through the TAP tag on U1A
T4 sequence (looked up): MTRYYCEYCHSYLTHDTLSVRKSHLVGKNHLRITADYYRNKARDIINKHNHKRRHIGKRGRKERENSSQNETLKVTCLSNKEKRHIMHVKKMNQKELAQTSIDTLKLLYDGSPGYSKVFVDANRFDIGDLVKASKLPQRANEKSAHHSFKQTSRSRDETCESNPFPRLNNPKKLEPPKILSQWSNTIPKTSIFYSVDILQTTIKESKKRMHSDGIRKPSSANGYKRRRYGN
The description is as above. The note with it: both partners purified.

B1: human PrpF39, Flag-tagged (second copy HA-tagged in the co-IP) (natural protein, UniProt Q86UA1 1-669, looked up)
chain: MQNSHMDEYRNSSNGSTGNSSEVVVEHPTDFSTEIMNVTEMEQSPDDSPNVNASTEETEMASAVDLPVTLTETEANFPPEYEKFWKTVENNPQDFTGWVYLLQYVEQENHLMAARKAFDRFFIHYPYCYGYWKKYADLEKRHDNIKPSDEVYRRGLQAIPLSVDLWIHYINFLKETLDPGDPETNNTIRGTFEHAVLAAGTDFRSDRLWEMYINWENEQGNLREVTAIYDRILGIPTQLYSHHFQRFKEHVQNNLPRDLLTGEQFIQLRRELASVNGHSGDDGPPGDDLPSGIEDITDPAKLITEIENMRHRIIEIHQEMFNYNEHEVSKRWTFEEGIKRPYFHVKPLEKAQLKNWKEYLEFEIENGTHERVVVLFERCVISCALYEEFWIKYAKYMENHSIEGVRHVFSRACTIHLPKKPMVHMLWAAFEEQQGNINEARNILKTFEECVLGLAMVRLRRVSLERRHGNLEEAEHLLQDAIKNAKSNNESSFYAVKLARHLFKIQKNLPKSRKVLLEAIERDKENTKLYLNLLEMEYSGDLKQNEENILNCFDKAVHGSLPIKMRITFSQRKVEFLEDFGSDVNKLLNAYDEHQTLLKEQDSLKRKAENGSEEPEEKKAHTEDTTSSSTQMIDGDLQANQAVYNYSAWYQYNYQNPWNYGQYYPPPPT
notes: human PrpF39; In the co-IP two differently tagged copies (Flag-PrpF39 and HA-PrpF39) were co-transfected; The purified protein carries the Flag tag; also called Flag-PrpF39; HA-PrpF39; source: HEK293FT, transfected (pEF-Bos-Flag-PrpF39 and/or pEF-Bos-HA-PrpF39), in lysate; also purified (anti-Flag M2 agarose, 3x Flag peptide elution, Superose 6 gel filtration)
Take B1: the “stoichiometry N” value in data set [1] worked out at 2.

B2: yeast Luc7 (natural protein, S. cerevisiae, UniProt Q07508 1-261, looked up)
chain: MSTMSTPAAEQRKLVEQLMGRDFSFRHNRYSHQKRDLGLHDPKICKSYLVGECPYDLFQGTKQSLGKCPQMHLTKHKIQYEREVKQGKTFPEFEREYLAILSRFVNECNGQISVALQNLKHTAEERMKIQQVTEELDVLDVRIGLMGQEIDSLIRADEVSMGMLQSVKLQELISKRKEVAKRVRNITENVGQSAQQKLQVCEVCGAYLSRLDTDRRLADHFLGKIHLGYVKMREDYDRLMKNNRTTNASKTATTLPGRRFV
notes: Luc7 of S. cerevisiae, 261 residues; first (pseudo) Zn-finger modelled; source: endogenous, S. cerevisiae; co-purified in U1 snRNP through the TAP tag on U1A
As to B2, the binding result with yeast Prp40, with yeast Snu56 and in the data set with yeast Prp42 was “binds” in each case.

B3: yeast SmD3 (natural protein, S. cerevisiae, UniProt P43321 1-101, looked up)
chain: MTMNGIPVKLLNEAQGHIVSLELTTGATYRGKLVESEDSMNVQLRDVIATEPQGAVTHMDQIFVRGSQIKFIVVPDLLKNAPLFKKNSSRPMPPIRGPKRR
notes: SmD3 of S. cerevisiae, member of the Sm ring of U1 snRNP; source: endogenous, S. cerevisiae; co-purified in U1 snRNP through the TAP tag on U1A
As for B3, the binding result with yeast U1C and with yeast Prp42 was “binds” each time.

A word on the stoichiometry N: it is a count of units in the complex or per binding partner.

Source of the values: article PMC5648754, “CryoEM structure of Saccharomyces cerevisiae U1 snRNP offers insight into alternative splicing” (Nature Communications, 2017).
